Reference: publication PMC2988979 (Nature structural & molecular biology, 2010)

Target: recombinant HAT1 holoenzyme (HAT1 and RbAp46) (UniProt O14929;Q16576)
Experiment: pull-down

Sequence of recombinant HAT1 holoenzyme (HAT1 and RbAp46) (O14929 whole entry, chain 1 of 2): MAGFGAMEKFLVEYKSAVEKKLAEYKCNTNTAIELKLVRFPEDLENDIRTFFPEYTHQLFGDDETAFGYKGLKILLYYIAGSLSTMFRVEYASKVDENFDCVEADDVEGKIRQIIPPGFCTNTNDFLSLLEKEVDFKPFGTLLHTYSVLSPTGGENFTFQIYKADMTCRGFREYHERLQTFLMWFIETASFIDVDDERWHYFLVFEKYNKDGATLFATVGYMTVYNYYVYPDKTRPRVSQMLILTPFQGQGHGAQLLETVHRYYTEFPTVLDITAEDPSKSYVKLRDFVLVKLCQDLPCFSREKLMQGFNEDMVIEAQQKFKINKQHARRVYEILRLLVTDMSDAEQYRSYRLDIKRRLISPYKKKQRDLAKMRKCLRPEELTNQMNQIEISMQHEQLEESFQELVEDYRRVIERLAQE
Sequence of recombinant HAT1 holoenzyme (HAT1 and RbAp46) (Q16576 whole entry, chain 2 of 2): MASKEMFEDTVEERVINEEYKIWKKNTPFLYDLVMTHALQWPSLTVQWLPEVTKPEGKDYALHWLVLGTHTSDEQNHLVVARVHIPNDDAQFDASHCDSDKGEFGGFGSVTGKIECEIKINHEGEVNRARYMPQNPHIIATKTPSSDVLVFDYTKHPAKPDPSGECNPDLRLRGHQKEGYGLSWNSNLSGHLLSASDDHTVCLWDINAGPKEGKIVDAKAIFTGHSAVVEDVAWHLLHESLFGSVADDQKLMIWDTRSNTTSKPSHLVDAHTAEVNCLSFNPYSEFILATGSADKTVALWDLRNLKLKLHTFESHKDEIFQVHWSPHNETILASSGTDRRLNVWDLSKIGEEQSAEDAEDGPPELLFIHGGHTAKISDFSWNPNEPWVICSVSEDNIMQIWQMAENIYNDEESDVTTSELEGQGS

B1: GST-tagged ASF1B (natural protein)
chain: MAKVSVLNVAVLENPSPFHSPFRFEISFECSEALADDLEWKIIYVGSAESEEFDQILDSVLVGPVPAGRHMFVFQADAPNPSLIPETDAVGVTVVLITCTYHGQEFIRVGYYVNNEYLNPELRENPPMKPDFSQLQRNILASNPRVTRFHINWDNNMDRLEAIETQDPSLGCGLPLNCTPIKGLGLPGCIPGLLPENSMDCI
Q: Does B1 bind?
A: binds
